Each block holds one binder with its values, some of them ahead of it.
Assays:
IL-15 [1] = target: T1, IL-15 (human, UniProt P40933); assay: SPR, PD1 capture
IL-15 [2] = target: T1, IL-15; assay: SPR, anti-human Fc capture
IL-15 [3] = target: T1, IL-15; assay: SPR, PD1 capture, additional production
IL-15 [4] = target: T1, IL-15; assay: SPR, anti-human Fc capture, additional production
[5] = target: T2, IL-15Rbetagamma heterodimer (human, UniProt P14784); assay: SPR, PD1 capture
T2 chain 1: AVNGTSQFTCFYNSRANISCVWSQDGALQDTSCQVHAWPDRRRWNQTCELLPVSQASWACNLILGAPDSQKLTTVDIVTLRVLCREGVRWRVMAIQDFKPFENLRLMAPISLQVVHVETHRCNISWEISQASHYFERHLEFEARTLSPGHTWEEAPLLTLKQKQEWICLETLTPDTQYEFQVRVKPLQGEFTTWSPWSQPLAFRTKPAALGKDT
T2 chain 2: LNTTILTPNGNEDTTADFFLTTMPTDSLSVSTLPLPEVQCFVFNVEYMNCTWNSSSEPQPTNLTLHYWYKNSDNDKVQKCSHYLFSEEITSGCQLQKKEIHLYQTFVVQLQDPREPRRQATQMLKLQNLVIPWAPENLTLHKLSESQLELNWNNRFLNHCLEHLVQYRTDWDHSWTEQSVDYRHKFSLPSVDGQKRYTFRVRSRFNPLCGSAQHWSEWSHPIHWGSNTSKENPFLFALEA

[6] = target: T2, IL-15Rbetagamma heterodimer; assay: SPR, anti-human Fc capture
[7] = target: T2, IL-15Rbetagamma heterodimer; assay: SPR, PD1 capture, additional production
[8] = target: T2, IL-15Rbetagamma heterodimer; assay: SPR, anti-human Fc capture, IL-15 and PD1 bound
PD-1 [9] = target: T3, PD-1 (human, UniProt Q15116); assay: SPR, PD1 surface
T3 sequence (Q15116 25-167): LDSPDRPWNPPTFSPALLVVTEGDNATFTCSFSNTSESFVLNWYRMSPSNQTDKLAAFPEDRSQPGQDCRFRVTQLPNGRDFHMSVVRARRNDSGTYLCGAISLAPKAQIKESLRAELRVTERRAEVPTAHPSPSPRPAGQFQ

PD-1 [10] = target: T3, PD-1; assay: SPR, protein A capture
PD-1 [11] = target: T3, PD-1; assay: SPR, anti-human Fc capture, additional production
PD-1 [12] = target: T3, PD-1; assay: SPR, protein A capture; remark: listed apart in the source

T1 sequence (P40933 49-162): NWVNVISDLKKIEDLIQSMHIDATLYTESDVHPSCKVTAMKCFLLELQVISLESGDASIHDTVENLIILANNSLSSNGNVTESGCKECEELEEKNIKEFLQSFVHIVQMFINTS

B1: RV30 IL-15 arm (antibody, V domains shown)
VH: QVQLVQSGAEVKKPGASVKVSCKASGYSFSSFGISWVRQAPGQGLEWLGWISAFNGYTKYAQKFQDRVTMTTDTSTSTAYMELRSLRSDDTAVYYCARDPAAWPLQQSLAWFDPWGQGTMVTVSS
VL: QSVLTQPPSASGTPGQRVTISCSGSTSNLKRNYVYWYQQLPGTAPKLLIYRDRRRPSGVPDRFSGSKSGTSASLAISGLRSEDEADYYCAWYDRELSEWVFGGGTKLTVL
- Kd (IL-15 [1]): 452 pM
- Kd (IL-15 [2]): 77 pM
- Kd (IL-15 [3]): 850 pM
- Kd (IL-15 [4]): 66.4 pM

B4: RV20 IL-15 arm (antibody, V domains shown)
VH: B1 VH
VL: B1 VL
- Kd (IL-15 [2]): 51.9 pM
- Kd (IL-15 [3]): 169 pM
- Kd (IL-15 [4]): 53.1 pM

B5: RV37:IL-15 complex (antibody)
chain 1: B1 VH
chain 2: B1 VL
chain 3: not shown
- Kd [5]: 693 pM
- Kd [6]: 986 pM
- Kd [8]: 848 pM

B6: RV20:IL-15 complex (antibody)
chain 1: B1 VH
chain 2: B1 VL
chain 3: not shown
- Kd [5]: 667 pM
- Kd [6]: 852 pM
- Kd [7]: 726 pM

B7: RV36 IL-15 arm (antibody, V domains shown)
VH: B1 VH
VL: B1 VL
- Kd (IL-15 [1]): 111 pM
- Kd (IL-15 [2]): 116 pM

B8: RV20 PD-1 arm (antibody, V domains shown)
VH: QVQLVQSGVEVKKPGASVKVSCKASGYTFTNYYMYWVRQAPGQCLEWMGGINPSNGGTNFNEKFKNRVTLTTDSSTTTAYMELKSLQFDDTAVYYCARRDYRFDMGFDYWGQGTTVTVSS
VL: EIVLTQSPATLSLSPGERATLSCRASKGVSTSGYSYLHWYQQKPGQAPRLLIYLASYLESGVPARFSGSGSGTDFTLTISSLEPEDFAVYYCQHSRDLPLTFGCGTKVEIK
- Kd (PD-1 [9]): 17200 pM
- Kd (PD-1 [10]): 269000 pM
- Kd (PD-1 [11]): 3990 pM

B9: RV19 PD-1 arm (antibody, V domains shown)
VH: B8 VH
VL: EIVLTQSPATLSLSPGERATLSCRASKGVSTSGYSYLHWYQQKPGQAPRLLIYLASYLESGVPARFSGSGSGTDFTLTISSLEPEDFAVYYCQHSRDLPLTFGCGTKVEI
- binding result (PD-1 [12]): no binding

The next lines start with the values.

- Kd [5]: 828 pM
- Kd [6]: 849 pM
- Kd [7]: 665 pM
- Kd [8]: 706 pM
B2: RV30:IL-15 complex (antibody)
chain 1: B1 VH
chain 2: B1 VL
chain 3: not shown

- Kd (IL-15 [1]): 717 pM
- Kd (IL-15 [2]): 180 pM
B3: RV31 IL-15 arm (antibody, V domains shown)
VH: B1 VH
VL: B1 VL

- Kd (PD-1 [9]): 2190 pM
B10: RV26 PD-1 arm (antibody, V domains shown)
VH: B8 VH
VL: B8 VL
